In patent US20080138349A1:
Blank lines part the entries; values can stand above or below the substance they belong to.

Experiments:
FcγRIIIA = FcγRIIIA (UniProt P08637); assay: ELISA
[1] = biological target: FcγRIIB (CD32B), soluble dimeric Fc fusion (human) (UniProt P31994); assay: Biacore SPR
[2] = biological target: FcγRIIIA 158F (CD16A F158), soluble monomer (human) (UniProt P08637); assay: Biacore SPR
[3] = biological target: FcγRIIIA 158V (CD16A V158), soluble monomer (human) (UniProt P08637); assay: Biacore SPR
[4] = biological target: FcγRIIIA 158F (CD16A F158), soluble monomer (human) (UniProt P08637); assay: Biacore SPR; value on CD16A over value on CD32B
[5] = biological target: FcγRIIIA 158V (CD16A V158), soluble monomer (human) (UniProt P08637); assay: Biacore SPR; value on CD16A over value on CD32B

Chain of FcγRIIB (CD32B), soluble dimeric Fc fusion (human) (P31994 43-217): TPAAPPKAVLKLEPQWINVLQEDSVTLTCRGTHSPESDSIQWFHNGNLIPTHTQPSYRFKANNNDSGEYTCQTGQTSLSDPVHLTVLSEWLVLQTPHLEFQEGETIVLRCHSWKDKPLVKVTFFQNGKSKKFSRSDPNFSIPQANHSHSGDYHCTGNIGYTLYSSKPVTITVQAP
Chain of FcγRIIIA 158V (CD16A V158), soluble monomer (human) (P08637 17-208 F176V): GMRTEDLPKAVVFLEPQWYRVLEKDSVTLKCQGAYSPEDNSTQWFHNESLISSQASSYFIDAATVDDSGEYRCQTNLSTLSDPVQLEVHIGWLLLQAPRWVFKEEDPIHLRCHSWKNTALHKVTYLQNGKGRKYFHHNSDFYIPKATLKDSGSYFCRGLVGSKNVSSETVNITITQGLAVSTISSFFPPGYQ
Chain of FcγRIIIA 158F (CD16A F158), soluble monomer (human) (P08637 17-208): as the sequence (P08637 17-208 F176V) above, with V160F counted along it
Chain of FcγRIIIA (P08637 17-208 limits assumed): as the sequence (P08637 17-208 F176V) above, with V160F counted along it

Substance: ch4-4-20 H310Y, T289A, G337E (from UniProt P01857 1-330) (antibody)
ELISA binding increase vs wt (FcγRIIIA): 0.5 x

Substance: ch4-4-20 S298N, S407R (from UniProt P01857 1-330) (antibody)
ELISA binding increase vs wt (FcγRIIIA): 0.5 x

Substance: ch4-4-20 P247L (from UniProt P01857 1-330) (antibody)
ELISA binding increase vs wt (FcγRIIIA): 0.5 x

Substance: ch4-4-20 K334E, T359N, T366S, Q386R (from UniProt P01857 1-330) (antibody)
ELISA binding increase vs wt (FcγRIIIA): 1 x

Substance: ch4-4-20 S383N, N384K, T256N, V262L, K218E, R214I, K205E, F149Y, K133M (from UniProt P01857 1-330) (antibody)
ELISA binding increase vs wt (FcγRIIIA): 0.5 x

Substance: Immunoglobulin with variant Fc region K392T P396L D270E F243L (antibody)
Koff WT/Koff mutant [1]: 0.44
Koff WT/Koff mutant [2]: 2.44
Koff WT/Koff mutant [3]: 3.16
Ratio of Affinities CD16A F158/CD32B [4]: 5.55
Ratio of Affinities CD16A V158/CD32B [5]: 7.18

Substance: ch4-4-20 I377N (from UniProt P01857 1-330) (antibody)
ELISA binding decrease vs wt (FcγRIIIA): 0.5 x

Substance: ch4-4-20 P247L, A431V, S442F (from UniProt P01857 1-330) (antibody)
ELISA binding vs wt (FcγRIIIA): 1 x

Substance: ch4-4-20 P396H (from UniProt P01857 1-330) (antibody)
ELISA binding increase vs wt (FcγRIIIA): 1 x

Substance: ch4-4-20 S407I (from UniProt P01857 1-330) (antibody)
ELISA binding increase vs wt (FcγRIIIA): 0.5 x

Substance: Immunoglobulin with variant Fc region P247L N421K F243L (antibody)
Koff WT/Koff mutant [1]: 0.17
Koff WT/Koff mutant [2]: 1.71
Koff WT/Koff mutant [3]: 1.89
Ratio of Affinities CD16A F158/CD32B [4]: 10.1
Ratio of Affinities CD16A V158/CD32B [5]: 11.1

Substance: Immunoglobulin with variant Fc region Q419H P396L (antibody)
Koff WT/Koff mutant [1]: 1.33
Koff WT/Koff mutant [2]: 1.19
Koff WT/Koff mutant [3]: 1.19
Ratio of Affinities CD16A F158/CD32B [4]: 0.89
Ratio of Affinities CD16A V158/CD32B [5]: 0.89

Substance: ch4-4-20 D401V (from UniProt P01857 1-330) (antibody)
ELISA binding increase vs wt (FcγRIIIA): 0.5 x

Substance: ch4-4-20 K334I (from UniProt P01857 1-330) (antibody)
ELISA binding increase vs wt (FcγRIIIA): 1 x

Substance: ch4-4-20 K320E, K326E (from UniProt P01857 1-330) (antibody)
ELISA binding increase vs wt (FcγRIIIA): 1 x

Substance: Immunoglobulin with variant Fc region R292G (antibody)
Koff WT/Koff mutant [1]: 0.25
Koff WT/Koff mutant [3]: 1.54
Ratio of Affinities CD16A V158/CD32B [5]: 6.2

Substance: Immunoglobulin with variant Fc region Q419H P396L D270E (antibody)
Koff WT/Koff mutant [1]: 0.68
Koff WT/Koff mutant [3]: 1.64

Substance: Immunoglobulin with variant Fc region G316D R416G D270E (antibody)
Koff WT/Koff mutant [1]: 0.78
Koff WT/Koff mutant [2]: 2.49
Koff WT/Koff mutant [3]: 2.18
Ratio of Affinities CD16A F158/CD32B [4]: 3.19
Ratio of Affinities CD16A V158/CD32B [5]: 2.79

Substance: ch4-4-20 P247L, I253N, K334N (from UniProt P01857 1-330) (antibody)
ELISA binding increase vs wt (FcγRIIIA): 3 x

Substance: ch4-4-20 P227S, K290E (from UniProt P01857 1-330) (antibody)
ELISA binding increase vs wt (FcγRIIIA): 1 x

Substance: ch4-4-20 P291S, K288E, H268L, A141V (from UniProt P01857 1-330) (antibody)
ELISA binding decrease vs wt (FcγRIIIA): 0.5 x

Substance: ch4-4-20 D312E, K327N, I378S (from UniProt P01857 1-330) (antibody)
ELISA binding increase vs wt (FcγRIIIA): 0.5 x

Substance: ch4-4-20 K288N, K326N (from UniProt P01857 1-330) (antibody)
ELISA binding increase vs wt (FcγRIIIA): 1 x

Substance: ch4-4-20 F275Y (from UniProt P01857 1-330) (antibody)
ELISA binding increase vs wt (FcγRIIIA): 3 x

Substance: ch4-4-20 H224L (from UniProt P01857 1-330) (antibody)
ELISA binding increase vs wt (FcγRIIIA): 0.5 x

Substance: ch4-4-20 T394M, V397M (from UniProt P01857 1-330) (antibody)
ELISA binding increase vs wt (FcγRIIIA): 0.5 x

Substance: ch4-4-20 R301H, K340E, D399E (from UniProt P01857 1-330) (antibody)
ELISA binding decrease vs wt (FcγRIIIA): 0.5 x

Substance: ch4-4-20 N315I, V379M, T394M (from UniProt P01857 1-330) (antibody)
ELISA IIIA binding vs wt (FcγRIIIA): 1 X
ELISA binding increase vs wt (FcγRIIIA): 1 x

Substance: ch4-4-20 P343S, P353L, S375I, S383N (from UniProt P01857 1-330) (antibody)
ELISA binding increase vs wt (FcγRIIIA): 0.5 x

Substance: ch4-4-20 K222N, T335N, K370E, A378V, T394M (from UniProt P01857 1-330) (antibody)
ELISA binding increase vs wt (FcγRIIIA): 1 x

Substance: ch4-4-20 Q347H, A339V (from UniProt P01857 1-330) (antibody)
ELISA binding increase vs wt (FcγRIIIA): 0.5 x

Substance: ch4-4-20 A378V, N390I, V422I (from UniProt P01857 1-330) (antibody)
ELISA binding increase vs wt (FcγRIIIA): 0.5 x

Substance: ch4-4-20 S408I, V215I, V125L (from UniProt P01857 1-330) (antibody)
ELISA binding increase vs wt (FcγRIIIA): 0.5 x

Substance: ch4-4-20 T335N, K370E, A378V, T394M, S424L (from UniProt P01857 1-330) (antibody)
ELISA binding increase vs wt (FcγRIIIA): 0.5 x

Substance: ch4-4-20 F243L, R255L, E318K (from UniProt P01857 1-330) (antibody)
ELISA binding increase vs wt (FcγRIIIA): 1 x

Substance: ch4-4-20 K334N (from UniProt P01857 1-330) (antibody)
ELISA binding increase vs wt (FcγRIIIA): 0.5 x

Substance: ch4-4-20 P247L, I377F (from UniProt P01857 1-330) (antibody)
ELISA binding increase vs wt (FcγRIIIA): 1 x

The next lines start with the values.

ELISA binding increase vs wt (FcγRIIIA): 1 x
Substance: ch4-4-20 K246T, Y319F (from UniProt P01857 1-330) (antibody)

Koff WT/Koff mutant [1]: 0.32
Koff WT/Koff mutant [2]: 3.45
Koff WT/Koff mutant [3]: 2.3
Ratio of Affinities CD16A F158/CD32B [4]: 10.8
Ratio of Affinities CD16A V158/CD32B [5]: 7.19
Substance: Immunoglobulin with variant Fc region P247L N421K D270E F243L (antibody)

ELISA binding increase vs wt (FcγRIIIA): 1 x
Substance: ch4-4-20 K370N, S440N (from UniProt P01857 1-330) (antibody)

Koff WT/Koff mutant [1]: 1.38
Koff WT/Koff mutant [2]: 8.25
Koff WT/Koff mutant [3]: 10.1
Substance: Immunoglobulin with variant Fc region R292P V305I F243L P396L Y300L (antibody)

Ratio of Affinities CD16A V158/CD32B [5]: 0.6
Substance: Immunoglobulin with variant Fc region R292P V305I (antibody)

ELISA binding increase vs wt (FcγRIIIA): 0.5 x
Substance: ch4-4-20 K326E, G385E (from UniProt P01857 1-330) (antibody)

Koff WT/Koff mutant [1]: 0.37
Koff WT/Koff mutant [2]: 1.37
Koff WT/Koff mutant [3]: 1.14
Ratio of Affinities CD16A F158/CD32B [4]: 3.7
Ratio of Affinities CD16A V158/CD32B [5]: 3.1
Substance: Immunoglobulin with variant Fc region R292P V284M K370N (antibody)

ELISA binding increase vs wt (FcγRIIIA): 1 x
Substance: ch4-4-20 S400P (from UniProt P01857 1-330) (antibody)

Koff WT/Koff mutant [1]: 0.79
Koff WT/Koff mutant [2]: 2.28
Koff WT/Koff mutant [3]: 1.81
Ratio of Affinities CD16A F158/CD32B [4]: 2.89
Ratio of Affinities CD16A V158/CD32B [5]: 2.29
Substance: Immunoglobulin with variant Fc region K392T P396L D270E (antibody)

ELISA binding increase vs wt (FcγRIIIA): 0.5 x
Substance: ch4-4-20 V282E, V369I, L406F (from UniProt P01857 1-330) (antibody)

Ratio of Affinities CD16A V158/CD32B [5]: 39.4
Substance: Immunoglobulin with variant Fc region R292P F243L (antibody)

Koff WT/Koff mutant [2]: 1.73
Koff WT/Koff mutant [3]: 1.29
Substance: Immunoglobulin with variant Fc region P247L N421K (antibody)

ELISA binding vs wt (FcγRIIIA): 1 x
Substance: ch4-4-20 V284A, F372L (from UniProt P01857 1-330) (antibody)

ELISA binding increase vs wt (FcγRIIIA): 1 x
Substance: ch4-4-20 V279L, P395S (from UniProt P01857 1-330) (antibody)

ELISA binding increase vs wt (FcγRIIIA): 2.9 x
Substance: ch4-4-20 K326I, P396L (from UniProt P01857 1-330) (antibody)

ELISA binding increase vs wt (FcγRIIIA): 3 x
Substance: ch4-4-20 D280E, S354F, A431D, L441I (from UniProt P01857 1-330) (antibody)

ELISA binding decrease vs wt (FcγRIIIA): 0.5 x
Substance: ch4-4-20 R301C, M252L, S192T (from UniProt P01857 1-330) (antibody)

ELISA binding increase vs wt (FcγRIIIA): 0.5 x
Substance: ch4-4-20 E216D, E345K, S375I (from UniProt P01857 1-330) (antibody)

ELISA binding increase vs wt (FcγRIIIA): 0.5 x
Substance: ch4-4-20 S415I, L251F (from UniProt P01857 1-330) (antibody)

ELISA binding decrease vs wt (FcγRIIIA): 0.5 x
Substance: ch4-4-20 P291S, P353Q (from UniProt P01857 1-330) (antibody)

ELISA binding increase vs wt (FcγRIIIA): 1 x
Substance: ch4-4-20 V282M (from UniProt P01857 1-330) (antibody)

ELISA binding increase vs wt (FcγRIIIA): 1 x
Substance: ch4-4-20 K222N (from UniProt P01857 1-330) (antibody)

ELISA binding increase vs wt (FcγRIIIA): 1 x
Substance: ch4-4-20 K246R, S298N, I377F (from UniProt P01857 1-330) (antibody)

ELISA binding increase vs wt (FcγRIIIA): 1 x
Substance: ch4-4-20 K246T, P396H (from UniProt P01857 1-330) (antibody)

ELISA binding increase vs wt (FcγRIIIA): 0.5 x
Substance: ch4-4-20 F275I, K334N, V348M (from UniProt P01857 1-330) (antibody)

ELISA binding increase vs wt (FcγRIIIA): 1 x
Substance: ch4-4-20 G385E, P247H (from UniProt P01857 1-330) (antibody)

ELISA binding increase vs wt (FcγRIIIA): 1 x
Substance: ch4-4-20 S219Y (from UniProt P01857 1-330) (antibody)

ELISA binding decrease vs wt (FcγRIIIA): 0.5 x
Substance: ch4-4-20 D399E, M428L (from UniProt P01857 1-330) (antibody)
